The DeepSol protein solubility set

Assay: soluble on expression in E. coli; label from the status in PepcDB or PDB records

Sequence | soluble on expression in E. coli
MSLENRGILFDKDGTCIRFDTLWQAGLQACFETLSMLAPHHSAEIKKILAIQEQRFLQKHLLDEVLYQELYQELAQFEELVEQGISSRWLEQFFYDYLRKNLKKIEPIGDLKQLFLELKRKNYKIGLATSDTLPATMLIMEYLGLTEMFDFIATGDRYLPKPDADMLQAFCQSCQLKATEVIMVGDSLVDVFMGTCHGKAGIGVLTGNCQSTDFEKFEVAYFRDIHEIPYQELWGNTKKKKIYYVEGHHHHHH | soluble
AEPDTESSELSGSVSYRIVSVVNTITASHWDEKELLDKAELIDYPVRKCAHMSEYAILTLLGFLTFSFLHGRGRFLVPIGVTFLYACTDEFHQLFVPGRAGR | not soluble
MGSDKIHHHHHHMNGQPLIQVSDFEGPLDLLLHLIKTNEMDIYDIRISTITSQYLTYLHQMQLVRLDVAGEYFVMAANLMAIKAKLLLPKPQSVVPVDEDEPADPREELVNQLLEYQRYKQAAQALKQRALERQQHFTRPAMAVPESVELTVAPGIKPVDLQTALVRLMQRATLAKPVTQSVHQEHFTIKRQMTTILQRLKGTTAPVAFEQLLVTHPVMEEVVTTFLAVLELARQRQVQLQQAGRLAPLQVNFLQMEGRFSTDVTSSTD | not soluble
MGSDKIHHHHHHMINRSLGISCGLVIVLAGCSETTTKDSSKTVPKTSETVKSDIIFKNLRTPWNIEKNQEVFYITEREGTIVKGTEGNYSRTDLELTEPVVAQGEGGLLGMALDPDFSKNRTAYVYHTYEKDGALWNRIIAIKEEKESWKEQRVLLDKIPGATIHNGGRIEIGPDGLLYVTAGDAAVPENAQKLSSLSGKILRMKLDGKPADGNVKEYIYSYGHRNPQGLVFVDQTLYATEHGQNGHDEINRIEQKNYGWPLIEGTEKQQGLVTPWYEVGEKSIAPSGVAEQNGKLYFGTLVGQSLRSIETESSKVEQIVTDRGRIRDVMTDGKELYYVTNNTDGRGNSSDEDDVLVRLKP | not soluble
GPGSMEEGVDLREGLPEDVLAAVIAAPGQVTVEEARAQLNSSTSFRVDAGLVHLTADGAREQSQMETMLLKLATKIPPTGVSGAQFRAILEDEAPHFQPSAVGALSLKEAVQRYPRLFDVETDTTGKWFVRPAGVGKDGRASVGKNSGPISIINFCSERALMGNQADYVPLHVAMREESVASEGVLRDLVDSEELSKQLQIRFSVRLRPKRPVTNAFCFVDGDEIGLEAVDAIWKEMNLSDKSTRLVARQPTSRKHNSSDIVAPADMPTYAVVERKARELSLTQSVVLQDVIYMCSLRQFSLYADHIAKLNAFPDADVYVCCPSKVKLVAQKQFVPL | not soluble
SFTSQQWKHLSNDFLKTQQEKRHSWFKASGTIKKFRAGLSIFSPIPKSPSFPIIQDSMLKGKLGVPELRVGRLMNRSISCTMKNPKVEVFGYPPSPQVSGHCKNIPTLEYGFLVQIMKYAEQRIPTLNEYCVVCDEQHVFQNGSMLKPAVCTRELCVFSFYTLGVMSGAAEEVATGAEVVDLLVAMCRAALESPRKSIIFEPYPSVVDPTDPKTLAFNPKKKNYERLQKALDSVMSIREMTQGSYLEIKKQMDKLDPLAHPLLQWIISSNRSHIVKLPLSRLKFMHTSHQFLLLSSPPAKEARFRTAKKLYGSTFAFHGSHIENWHSILRNGLVNASYTKLQEWEKDSTGCPPRMSWSRDTTG | soluble
MAHHHHHHMADSSCTSAAASVATAAPAFDFKPLQKSNVDLFATAPQVKKLTRREKDKMLRELEVKRAKPRAVDDSSGAAGKGRKGQPRQSDRSAAVAEVVRSATISSSSDDASGIGNKGEKKKSLFETVFDTKEVEKELAAQEDRRSRKRSKKQVLRHALHSNEEEDARTVFVGNLPNTIHKRDVEKIFKSCGSITAVRIRCQALEELDEQHQNMGRAVRVLRGEIKKDAKYSATAYVLFDSAKSIASALEKNGLIFHNRHIVVTTMDVESRAYPPETSIFLGNVAYNTTEEDVWSFFQEHGIADVKRVRLVRDRETGDCKGFGYVEFMHASSVQPAIETRGDKLNGRELRIVHVNKSKEVKVATKSRREKRRSEHAGGRGGAEACKRSRSGGDGDGGSRGSAGYSNFKKPRTDSDLPSWAGLTTNPRRKMPKDLRPLVEGKVEFKPRGPRAPVKRKTRNPEK | soluble
MGSDKIHHHHHHMTTDNAKAQLTSSSGGNIIVVSNRLPVTITKNSSTGQYEYAMSSGGLVTALEGLKKTYTFKWFGWPGLEIPDDEKDQVRKDLLEKFNAVPIFLSDEIADLHYNGFSNSILWPLFHYHPGEINFDENAWLAYNEANQTFTNEIAKTMNHNDLIWVHDYHLMLVPEMLRVKIHEKQLQNVKVGWFLHTPFPSSEIYRILPVRQEILKGVLSCDLVGFHTYDYARHFLSSVQRVLNVNTLPNGVEYQGRFVNVGAFPIGIDVDKFTDGLKKESVQKRIQQLKETFKGCKIIVGVDRLDYIKGVPQKLHAMEVFLNEHPEWRGKVVLVQVAVPSRGDVEEYQYLRSVVNELVGRINGQFGTVEFVPIHFMHKSIPFEELISLYAVSDVCLVSSTRDGMNLVSYEYIACQEEKKGSLILSEFTGAAQSLNGAIIVNPWNTDDLSDAINEALTLPDVKKEVNWEKLYKYISKYTSAFWGENFVHELYSTSSSSTSSSATKN | not soluble
MGSDKIHHHHHHMTEKEIVDYIKNNDIQKIKFAFADIDGVLRGKLIHTDKFLDGLKEGLGFCDVVFGWDSADAGYDNVSATGWHTGYPDKLAQIDLSTFRLIPWENNTPFFLADYKNNDQTALPICPRTLLKRIAQECSAMGYHAAFAQEFEWFNFRETQQSLVEKNFHDLTPLTNGMFGYSILRPSLEDAYYNDLFDLLGAFDIPLEGLHTETGPGVYECAYFHDEVVRAADKATLLKTAVKEIANKHGIIATFMAKISDKLPGCSGHIHQSLWNTGKTENLFYDPNQEHNMSDLFKHYVAGQLYCLPHIVPMLAPTVNSYKRLVEGAWAPTTLTWGFDNRTTALRVLNHSKKTARLEQRVSGSDTNPYLAIAASLASGLYGIKHKLSLDVPPTTGNGYANKSNGSIASNLMDATQLMKNSSIAKELFGEAFVQHFTATREWEWRQFSKHVSDWEMKRYMEII | not soluble
MILVFLGPPGAGKGTQAKRLAKEKGFVHISTGDILREAVQKGTPLGKKAKEYMERGELVPDDLIIALIEEVFPKHGNVIFDGFPRTVKQAEALDEMLEKKGLKVDHVLLFEVPDEVVIERLSGRRINPETGEVYHVKYNPPPPGVKVIQREDDKPEVIKKRLEVYREQTAPLIEYYKKKGILRIIDASKPVEEVYRQVLEVIGDGN | soluble
MGHHHHHHHSSENLYFQGHMRKIRVGLIFGGKSAEHEVSLQSARNILDALDPQRFEPVLIGIDKQGQWHVNDPDSFLLHADDPARIALHRSGRGVALLPGAQQQQLRPIQPEQALAQIDVVFPIVHGTLGEDGSLQGLLRMANLPFVGSGVLGSAVAMDKDMAKRVLRDARLAVAPFVCFDRHTAAHADVDTLIAQLGLPLFVKPANQGSSVGVSQVRTADAFAAALALALAYDHKVLVEAAVAGREIECAVLGNAVPHASVCGEVVVHDAFYSYATKYISEHGAEIVIPADIDAQTQQRIQQIAVQAYQALGCAGMARVDVFLCADGRIVINEVNTLPGFTRISVYPKLWQASGLDYRGLITRLIELALERHTDDQLLRSAVELH | soluble
MSEGSKQNKKSTDAFSKYMRKLFGIQEITESQREYIEKLERELESAKGTLSTREEKEMIRGLVKFGNIMVKQIMCPRMDMAAVDIALNYEQLQEYISTCGFSRIPVYKESADKIEGVLNIKDLFPFYNKEKDFNWQQLIRTVEFIPETKLIEELLREFQLKHLHMAIVVDEYGGTAGLITMEDVIEEIVGDIHDEYDDDEKPYAQLSDTSYLFEGKISLVDFYKAIELDKDIFDEVKGESETLGGLLLNINSDLPRLGDEIIYEGYVFKIDAVNSKRILRVKVTVPENSENEK | soluble
MNALARRAAGLLLGTLCLPLAAFAADVQPTHEFILDNGLKVVVREDHRAPVVVSQIWYKVGSSYETPGQTGLSHALEHMMFKGSAKVGPGEASRILRDLGADENAFTSDDYTAYYQVLARDRLPVALELEADRLASLRLPADEFSREIEVIKEERRLRTDDQPNAKAFELFRAMAYPASGYHTPTIGWMADLERMKVEELRHWYESWYAPNNATLVVVGDVTADEVKGLAQKYFGNIPKRA | not soluble
